Measurements taken from paper PMC10806198, “Effects of OxyR regulator on oxidative stress, Apx toxin secretion and virulence of Actinobacillus pleuropneumoniae”.

T1: OxyR (rOxyR) (Actinobacillus pleuropneumoniae 4074 …, UniProt A0ABM6X4Q0 1-297)
T1 sequence: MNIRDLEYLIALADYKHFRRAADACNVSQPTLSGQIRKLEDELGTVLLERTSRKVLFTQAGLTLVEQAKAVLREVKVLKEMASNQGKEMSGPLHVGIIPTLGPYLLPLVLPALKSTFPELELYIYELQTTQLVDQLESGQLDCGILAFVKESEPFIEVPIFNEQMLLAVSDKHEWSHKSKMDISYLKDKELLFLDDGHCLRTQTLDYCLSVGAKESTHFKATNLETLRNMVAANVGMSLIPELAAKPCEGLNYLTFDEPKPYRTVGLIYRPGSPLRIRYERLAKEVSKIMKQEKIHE


target: T1, OxyR (rOxyR); test: EMSA; dose-dependent; abolished by excess unlabeled probe; Lightshift EMSA binding buffer (composition and pH not given), 0.5 ul poly[d(I-C)], 10 ul, 25 C 30 min; 5% native PAGE in 0.5x TBE; details: protein: recombinant; tags: His (pET28a NdeI/XhoI, HisTrap purified); chain copies: 4; label: biotin 3'-end; blunt

Binder | binding result
apxIBD promoter probe (ApxIBDp) (dsDNA) DNA 1: ATGATAAATAGCAATCCTATATATATTAGGTGTGTAGGAT DNA 2: ATCCTACACACCTAATATATATAGGATTGCTATTTATCAT | binds
oxyR promoter probe (oxyRp) (dsDNA) DNA 1: GAACGTACCAGCCGTAAGGTATTATTTACCCAAGCCGGTT DNA 2: AACCGGCTTGGGTAAATAATACCTTACGGCTGGTACGTTC | binds
catalase promoter probe (05430p) (dsDNA) DNA 1: ATAATAATATATCCATACACAAAACCTATTAACATTCCAA DNA 2: TTGGAATGTTAATAGGTTTTGTGTATGGATATATTATTAT | binds
